One substance from paper PMC7171172 can be followed below.

The assay deals with Rhodobacter capsulatus formate dehydrogenase subunit FdsA (Rhodobacter capsulatus). In words: cryo-EM structure; single particle analysis of the co-expressed, co-purified RcFDH complex (100 µg/ml), as isolated with 10 mM azide and after 5 min with 2 mM NADH; C2 symmetry imposed; 3.3 Å and 3.2 Å.

With “Rhodobacter capsulatus formate dehydrogenase subunit FdsA (natural protein)”, the stoichiometry N was 2.

Usually stoichiometry N stands for the number of molecules, sites or subunits per partner or assembly.
